Source: paper PMC13017698

Tests used:
Experiment in all cases: SEC
[1] = molecular target: PahZ1Bfg, PahZ1 homolog from Brevifollis gellanilyticus (PahZ1-like domain fused to a CapA-like domain), residues 23-644 (Brevifollis gellanilyticus)
[2] = molecular target: PahZ1_(KT-1), poly(aspartic acid) hydrolase PahZ1 from Sphingomonas sp. KT-1 (Sphingomonas sp. KT-1)
[3] = molecular target: PahZ1_(Spyx), PahZ1 homolog from Sphingopyxis sp. Root1497, residues 21-313 (Sphingopyxis sp. Root1497)

“PahZ1Bfg, PahZ1 homolog from Brevifollis gellanilyticus (PahZ1-like domain fused to a CapA-like domain), residues 23-644 (enzyme)” showed a stoichiometry N [1] of 2.
“PahZ1_(KT-1), poly(aspartic acid) hydrolase PahZ1 from Sphingomonas sp. KT-1 (enzyme)” was tested, and the stoichiometry N [2] was 2.
“PahZ1_(Spyx), PahZ1 homolog from Sphingopyxis sp. Root1497, residues 21-313 (enzyme)” gave a stoichiometry N [3] of 2.
